Here are results for 40 molecules from patent US7432342 (dated 2008).

Ends that are not written are not given here.

The first assay concerns the target PKA-RIα-GFP (UniProt P10644).
Experiment: not given
Turning to TDEAQEELAWKIAKMIVSD [truncation SEQ 8], the binding result is on record as “no binding”. The same measure, in the same setting: for AQEELAWKIAKMI [truncation SEQ 10] the value was “no binding”; for ELAWKIA [truncation SEQ 13], “no binding”.

EELAWKIAK [truncation SEQ 12]: the binding result is given as “no binding”. Same read-out and setting: for QEELAWKIAKM [truncation SEQ 11] the value was “no binding”; for EAQEELAWKIAKMIV [truncation SEQ 4], “no binding”. Regarding DEAQEELAWKIAKMIVS [truncation SEQ 9], the binding result is “no binding”.

For a further assay, the target named is PKA-RIIα-GFP (UniProt P13861).
Sequence of PKA-RIIα-GFP (P13861 2-404): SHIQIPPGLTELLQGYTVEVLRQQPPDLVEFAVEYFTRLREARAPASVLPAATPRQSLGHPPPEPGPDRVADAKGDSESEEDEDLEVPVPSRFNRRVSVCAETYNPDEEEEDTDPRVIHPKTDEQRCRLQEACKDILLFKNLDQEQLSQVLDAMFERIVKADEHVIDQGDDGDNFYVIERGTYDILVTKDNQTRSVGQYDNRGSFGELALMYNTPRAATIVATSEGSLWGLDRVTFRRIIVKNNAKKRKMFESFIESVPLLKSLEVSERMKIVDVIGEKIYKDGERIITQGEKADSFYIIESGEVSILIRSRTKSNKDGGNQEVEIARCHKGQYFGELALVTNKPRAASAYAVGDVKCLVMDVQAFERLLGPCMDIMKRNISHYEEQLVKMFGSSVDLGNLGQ
Experiment: not given
As to WKIAKMIVSDIMQQ [truncation SEQ 78], the binding result is “no binding”.

Turning to IAKMIVSDIMQQ [truncation SEQ 80], the binding result is “no binding”. In the case of KMIVSDIMQQ [truncation SEQ 82], the binding result is reported as “no binding”. On the same count and under the same terms, for KIAKMIVSDIMQQ [truncation SEQ 79] the value was “no binding”. Take AKMIVSDIMQQ [truncation SEQ 81]: the binding result was “no binding”.

The next assay deals with T1, PKA RIIα (full-length) (mouse, UniProt P12367). The assay can be described thus: FP.
T1 sequence (P12367 2-401): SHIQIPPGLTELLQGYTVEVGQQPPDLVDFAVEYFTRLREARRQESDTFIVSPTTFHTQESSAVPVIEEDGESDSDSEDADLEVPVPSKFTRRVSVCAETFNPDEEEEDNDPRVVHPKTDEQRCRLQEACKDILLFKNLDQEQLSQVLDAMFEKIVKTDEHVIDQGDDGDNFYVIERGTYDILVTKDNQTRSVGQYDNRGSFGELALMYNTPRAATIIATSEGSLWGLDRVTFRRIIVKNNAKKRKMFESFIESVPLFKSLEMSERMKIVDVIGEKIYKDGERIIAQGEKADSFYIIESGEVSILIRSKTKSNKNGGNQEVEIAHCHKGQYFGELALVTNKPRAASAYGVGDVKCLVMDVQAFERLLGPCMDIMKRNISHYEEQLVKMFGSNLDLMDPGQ
Take FEELAWKIAKMIWSDVFQQC [AKB(RI) PV-38]: the Kd was 456 nM. For QEEFAWKIAKMIISDVFQQC [PV-48], the Kd stood at 124 nM. Against the preceding molecule, the Kd is about 3.7-fold lower. On the same count and under the same terms, for VQGNTDEAQEELAWKIAKMIWSDVMQQC [V21W] the value was 83 nM; for QEEFAWKIAKMIVSDVFQQC [PV-47], 89 nM.

Ac-DLAWKIAKMIVSDVMQQC [Ac-DLAWKIAKMIVSDVMQQC] yielded a Kd of 107 nM.

Molecule FEELAWKIAKMIWSDVMQQC [PV-37] showed a Kd of 150 nM. VQGNTDEAQEELAWKIAKMIVSDVMQQC(tetramethylrhodamine) [AKB(dual) WT] gave a Kd of 2.2 nM. The same measure, in the same setting: the value for FEELAWKIAKMIISDVFQQC [PV-49] was 2.5 nM.

For another assay, the target named is T2, PKA RIα (full-length) (bovine, UniProt P00514). The assay can be described thus: FP.
T2 sequence (P00514 2-380): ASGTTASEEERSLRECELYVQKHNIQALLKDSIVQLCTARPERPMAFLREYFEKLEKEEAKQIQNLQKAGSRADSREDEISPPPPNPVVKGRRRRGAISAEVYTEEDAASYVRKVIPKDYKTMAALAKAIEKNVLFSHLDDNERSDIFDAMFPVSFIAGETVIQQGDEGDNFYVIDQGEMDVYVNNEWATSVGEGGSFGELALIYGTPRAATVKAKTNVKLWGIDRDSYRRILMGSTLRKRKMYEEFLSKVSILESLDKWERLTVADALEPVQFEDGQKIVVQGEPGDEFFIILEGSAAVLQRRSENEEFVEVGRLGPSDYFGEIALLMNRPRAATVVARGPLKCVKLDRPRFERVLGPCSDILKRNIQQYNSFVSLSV
Turning to VQGNTDEAQEELAWKIEKMIWSDVMQQC (also: fluorescently labeled) [AKB(null)], the Kd was determined as 998 nM.

Consider FEELAWKIAKMIWSDVFQQC [AKB(RI) PV-38], for which the Kd was 5.2 nM. This Kd lies about 190-fold lower than the previous one. The same measure, in the same setting: the value for VQGNTDEAQEELLWKIAKMIVSDVMQQC (also: fluorescently labeled) [AKB(RII)] was 2490 nM. Still for that read-out and setting: the value for VQGNTDEAQEELAWKIAKMIVSDVMQQC(tetramethylrhodamine) [AKB(dual) WT] was 48 nM.

A further assay concerns the target PKA-RIα-GFP (UniProt P10644).
Experiment: not given
This is another data set of the same source.
VQGNTDEAQEEL [truncation SEQ 97]: the binding result is given as “no binding”. On to VQGNTDEAQEELAWKIAKMIVSD [truncation SEQ 86], for which the binding result is listed as “no binding”. In the case of VQGNTDEAQEELAWKI [truncation SEQ 93], the binding result is “no binding”. For VQGNTDEAQE [truncation SEQ 99], the binding result is given as “no binding”. The same measure, in the same setting: the value for VQGNTDEAQEELAWKIAKM [truncation SEQ 90] was “no binding”; that for VQGNTDEAQEE [truncation SEQ 98] was “no binding”; that for VQGNTDEAQEELAWKIA [truncation SEQ 92] was “no binding”.

In the case of VQGNTDEAQEELAWKIAK [truncation SEQ 91], the binding result is reported as “no binding”. Consider VQGNTDEAQEELAWKIAKMI [truncation SEQ 89], for which the binding result is “no binding”. For VQGNTDEAQEELAWKIAKMIV [truncation SEQ 88], the binding result is listed as “no binding”. For the molecule VQGNTDEAQEELAWK [truncation SEQ 94], the binding result is on record as “no binding”. Same read-out and setting: the value for VQGNTDEAQEELAW [truncation SEQ 95] was “no binding”; that for VQGNTDEAQEELAWKIAKMIVS [truncation SEQ 87] was “no binding”; that for VQGNTDEAQEELA [truncation SEQ 96] was “no binding”.

The next assay deals with PKA-RIα-GFP (UniProt P10644). The assay can be described thus: SPR.
Sequence of PKA-RIα-GFP (P10644 whole entry): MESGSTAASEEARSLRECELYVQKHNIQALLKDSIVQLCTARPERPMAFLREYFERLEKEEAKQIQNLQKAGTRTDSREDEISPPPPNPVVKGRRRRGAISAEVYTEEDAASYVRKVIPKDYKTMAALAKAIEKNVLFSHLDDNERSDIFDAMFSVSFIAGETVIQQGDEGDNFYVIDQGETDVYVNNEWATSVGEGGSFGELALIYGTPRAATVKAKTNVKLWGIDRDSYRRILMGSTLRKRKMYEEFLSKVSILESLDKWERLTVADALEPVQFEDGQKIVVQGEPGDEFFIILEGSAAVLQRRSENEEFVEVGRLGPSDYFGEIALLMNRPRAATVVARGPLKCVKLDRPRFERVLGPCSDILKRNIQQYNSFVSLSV
Ac-VQGNTDEAQEELAWKIAKMIVSDIMQQ [Ac-27mer Ile] registered a Kd of 860 nM. The same measure, in the same setting: the value for Ac-VQGNTDEAQEELAWKIAKMIVSDVMQQ-NH2 [Ac-27mer Val] was 500 nM.

The target of the next assay is PKA-RIIα-GFP (UniProt P13861).
Experiment: not given
This is another data set of the same source.
As for VQGNTDEAQEEL [truncation SEQ 97], the binding result is reported as “no binding”.

Consider VQGNTDEAQEELAWKI [truncation SEQ 93], for which the binding result was “no binding”. For the molecule VQGNTDEAQE [truncation SEQ 99], the binding result was “no binding”. VQGNTDEAQEELAWKIAKM [truncation SEQ 90]: the binding result is listed as “no binding”. Same read-out and setting: for VQGNTDEAQEE [truncation SEQ 98] the value was “no binding”; for VQGNTDEAQEELAWKIA [truncation SEQ 92], “no binding”; for VQGNTDEAQEELAWKIAK [truncation SEQ 91], “no binding”. Still for that read-out and setting: the value for VQGNTDEAQEELAWKIAKMI [truncation SEQ 89] was “no binding”; that for VQGNTDEAQEELAWK [truncation SEQ 94] was “no binding”.

For VQGNTDEAQEELAW [truncation SEQ 95], the binding result is given as “no binding”. As for VQGNTDEAQEELA [truncation SEQ 96], the binding result is reported as “no binding”.

The target of another assay is T1, PKA RIIα (full-length). The assay can be described thus: FP. The source holds these as a separate data set.
VQGNTDEAQEELAWKIEKMIWSDVMQQC (also: fluorescently labeled) [AKB(null)] gave a Kd greater than 10000 nM. Same read-out and setting: the value for FEELAWKIAKMIWSDVFQQC [AKB(RI) PV-38] was 456 nM; that for VQGNTDEAQEELLWKIAKMIVSDVMQQC (also: fluorescently labeled) [AKB(RII)] was 2.7 nM; that for VQGNTDEAQEELAWKIAKMIVSDVMQQC(tetramethylrhodamine) [AKB(dual) WT] was 2.2 nM.

In another assay the target is PKA-RIα-GFP (UniProt P10644).
Experiment: not given
This is another data set of the same source.
With WKIAKMIVSDIMQQ [truncation SEQ 78], the binding result was “no binding”. Same read-out and setting: for AWKIAKMIVSDIMQQ [truncation SEQ 77] the value was “no binding”; for IAKMIVSDIMQQ [truncation SEQ 80], “no binding”; for LAWKIAKMIVSDIMQQ [truncation SEQ 76], “no binding”.

For the molecule KMIVSDIMQQ [truncation SEQ 82], the binding result is “no binding”. For KIAKMIVSDIMQQ [truncation SEQ 79], the binding result is reported as “no binding”. Still for that read-out and setting: for AKMIVSDIMQQ [truncation SEQ 81] the value was “no binding”.

A further assay addresses T2, PKA RIα (full-length). The assay can be described thus: FP. This is another data set of the same source.
FEELAWKIAKMIWSDVFQQC [AKB(RI) PV-38] yielded a Kd of 5.2 nM. The same measure, in the same setting: the value for QEEFAWKIAKMIISDVFQQC [PV-48] was 12 nM.

The molecule VQGNTDEAQEELAWKIAKMIWSDVMQQC [V21W] came in with a Kd of 120 nM. In the case of QEEFAWKIAKMIVSDVFQQC [PV-47], the Kd stood at 39 nM. Compared with the last molecule, the Kd is about 3.1-fold lower. On the same count and under the same terms, for Ac-DLAWKIAKMIVSDVMQQC [Ac-DLAWKIAKMIVSDVMQQC] the value was 773 nM; for FEELAWKIAKMIWSDVMQQC [PV-37], 19 nM. In turn, VQGNTDEAQEELAWKIAKMIVSDVMQQC(tetramethylrhodamine) [AKB(dual) WT] had a Kd of 48 nM.

For FEELAWKIAKMIISDVFQQC [PV-49], the Kd amounted to 1.1 nM.

A further assay deals with PKA-RIIα-GFP (UniProt P13861).
Experiment: not given
The source holds these as a separate data set.
As to AQEELAWKIAKMI [truncation SEQ 10], the binding result is listed as “no binding”.

Turning to ELAWKIA [truncation SEQ 13], the binding result is given as “no binding”.

EELAWKIAK [truncation SEQ 12]: the binding result is listed as “no binding”.

On to QEELAWKIAKM [truncation SEQ 11], for which the binding result was “no binding”.
